Tests used:
[1] = system: K4 kissing-loop RNA reporter; assay: apparent KD of K4 kissing-loop reporter; higher = weaker reporter binding; details: Eterna round: R107;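 further: bound reporter read as fluorescence of individual clusters on recovered sequencing chips by microscopy, with normalized cluster intensities fitted with a binding model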
Experimental: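 RNA-MaP round R107: designed RNA switches with theophylline, tryptophan, arginine or FMN aptamers are transcribed on-chip within common flanks. They are titrated with a labelled K4 kissing-loop RNA reporter in RNA-MaP buffer (100 mM Tris pH 7.5, 80 mM KCl, 4 mM MgCl2), without ligand or with the indicated ligand. Median apparent KD per design.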

MS2 coat protein = assay: apparent KD of MS2 coat protein; designed switch direction (-1 OFF switch, 1 ON switch): -1; higher = weaker reporter binding
Method in brief: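 On Illumina chips, designed RNA switches with common flanks were made by stalled E. coli RNA polymerase. Titrations with SNAP-549-labelled MS2 coat protein, doubling from 0.7 or 1.5 nM to 3 µM, were done with no input, with 200 uM small-molecule ligand, or with an oligonucleotide input. Apparent KD is the median per design over clusters, from curve fits of normalised cluster fluorescence.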

[2] = input ligand: theophylline 20 uM
[3] = input ligand: tryptophan 2.4 mM
[4] = Eterna round: R95, input ligand: microRNA oligo, concentration not stated
[5] = input ligand: microRNA oligo, concentration not stated

| Sequence | apparent KD of K4 kissing-loop reporter ([1]; input ligand: FMN 200 uM) [nM] | apparent KD of K4 kissing-loop reporter ([1]; input ligand: arginine 13.2 mM) [nM] | apparent KD of K4 kissing-loop reporter ([1]; input ligand: none) [nM] | apparent KD of K4 kissing-loop reporter [1, 2] [nM] | apparent KD of K4 kissing-loop reporter [1, 3] [nM] | further results |
| --- | --- | --- | --- | --- | --- | --- |
| AAGAAUAAUCUUGCAGUGAUGUUGCAAGAUACCAGCAUCGAAAGAUGCCCUUGGCAGCUUGAAAACAUCACUAUCAAGCUGCAUA [Design2] | 620 | 452 | 664 | 552 | 558 | – |
| AAGCAGUCACGCGAAGCCAUCGAAGAUGGACGAGGACCGGUACGGCCGCCACUCGGAGUGAUGUUCCGAAGACUGCAAAAUAAAA | 515 | 499 | 420 | 599 | 363 | – |
| AAGCAGUCACUCGAAUCCAUCGAAGAUGGGCGAGGACCGGUACGGCCGCCACUCGGAGUGAUGUUCCGCAGACUGCAAAAUAAAA | 636 | 402 | 863 | 580 | 478 | – |
| AAGCAGUCCCUUGUUGUCAUCGAAGAUGAACGAGGACCGGUACGGCCGCCACUCGGAGUGAUGUUCCGAAGGCUGCAAAAUAAAA [MatMod 20 - Jieux - Exclusion - Tryptophan A] | 109 | 112 | 116 | 115 | 205 | – |
| AAGCGUAAAAUGGCGGACAUACUGCUCCCACGAGGACCGGUACGGCCGCCACUCGAAUGCGGCAGUGAUGUUGCCGCCUUAGCGU [KL-XTryp-A19] | 84.6 | 77.5 | 79.1 | 75.2 | 76.1 | – |
| AAGCGUGUGGCGGCCGCCACUAGUCUCCAGUGAUGUUGGAGAGAUCACGUAAGUGAUCUCCGACAUAGGACCGGGCCAUAUGGAA [Same State - Tryptophan B (Freestyle 23)] | 69.1 | 125 | 186 | 443 | 214 | – |
| AAGGGCGGAACUUCCUCGCCGGAUAGAGAUACCAGCCCAGCAAAGGGCCCUUGGCAGCUCACUGACCUCAGUGAUGUUGAGGUUC [Riesrevere] | 345 | 241 | 301 | 216 | 296 | – |
| AAGGGCGGGACUUCCUCGCCGGAUAGAGAUACCAGCCCUGCAAAGGGCCCUUGGCAGCUCACUGACCUCAGUGAUGUUGAGGUUC [Maanveri] | 252 | 210 | 234 | 209 | 223 | – |
| AAGGUCACCACUACAGUGAUGUUGUGGGAGCAGGAUAUGCAGAAAUGCAGAAGGGCUCGCUCCCGGUGACCGAAUGAAACAUUCA [Omei KL FMN A SS A v5] | 1380 | 636 | 981 | 765 | 846 | – |
| AAGGUCACUACUACAGUGAUGUUGUAGGAGCAGGAUAUGCAGAAAUGCAGAAGGGCUCGCUCCAAGUGACCGAAUGAAACAUUCA [Omei KL FMN A SS A v2] | 368 | 430 | 607 | 611 | 482 | – |
| AAGGUUCGUGGAAGGAGCGCCCGUGCGACUCGUUCACUAAGUGAAGUCCGAGUGAUGUUCGGGCAGGUAGGUCGCCACGGGCAAA [Atonenge] | 164 | 133 | 152 | 153 | 153 | – |
| AAGUACACGAUAGUGUACACCUAGUGAUGUUAGGAUAUGCAGAUAUGCAGAAGGAGCAAGUCAUCUGACAAUAGUCGGAUGACAA [FmnAX 7 #OpenEnded #K4Early] | 315 | 63.2 | 89.4 | 107 | 80.2 | – |
| AAGUGUGUGGCGGCCGCCACUAGAAUCCAGUGAUGUUGGAGAUAUCACGUAAGUGAUAUCCACCAUAGGACCGGGCCAUAUAGAA [Same State - Tryptophan B (Freestyle 13)] | 1300 | 758 | 559 | 428 | 483 | – |
| AAGUGUGUGGCGGCCGCCACUAGAAUCCAGUGAUGUUGGAGUUAUCAUAUAAUUGAUAAUCAACAUAGGACCGGGCCAUAUAGAA [Same State - Tryptophan B (Freestyle 6)] | 602 | 441 | 540 | 511 | 416 | – |
| UUUUCUUUUGUGAGGAUAUACUUCUUUUUUUUUUUGUAGAAGGCACAUGAGGAUCACCCAUGUUUUCUUUUCUG [JR_BME4_Sub027] (puzzle: Brourd's mod of Exclusion 4) | – | – | – | – | – | apparent KD of MS2 coat protein (MS2 coat protein; [4]): 22.1 nM |
| UUUUGGCAUGUAGGAUAUGGGUCCGAUUAGGAUUUAGAAGGACAUGAGGAUCACCCAUGUGCAUUUAAUUGGUCUUUUUUUUUU [EXclNG1-LROPPY15] (Eterna round: R96, puzzle: Exclusion NG 1) | – | – | – | – | – | apparent KD of MS2 coat protein (MS2 coat protein; [5]): 80 nM |
| UUUUUAUAUGAAGGAUAUACUUAACAUGAGGAUCACCCAUGUGGUGUUGUGAGUGAGUGAGUUUAGUAGAAGGUCAAUUAUUGU [JMF's solution 16] (Eterna round: R96, puzzle: Exclusion NG 2) | – | – | – | – | – | apparent KD of MS2 coat protein (MS2 coat protein; input ligand: FMN 200 uM): 2260 nM; apparent KD of MS2 coat protein (MS2 coat protein; [5]): 155 nM; apparent KD of MS2 coat protein (MS2 coat protein; input ligand: none): 394 nM |
| UUUUUAUUUUUUUAUUUUGACAUGAGGAUCACCCAUGUAACGAGCAGAUCUUCAUGCAAGCUUUUUGCUCGUCUUAU [Sensor v3 - Turn-off variant 1 - 41] (puzzle: Sensor v3, turn-off variant 1) | – | – | – | – | – | apparent KD of MS2 coat protein (MS2 coat protein; Eterna round: R95, input ligand: FMN 200 uM): 69.1 nM; apparent KD of MS2 coat protein (MS2 coat protein; [4]): 15.5 nM; apparent KD of MS2 coat protein (MS2 coat protein; Eterna round: R95, input ligand: none): 95.6 nM |
| UUUUUCUGUGUGAGGAUAUACUUUGUUUGGUCGUUGUAGAAGGCACAUGAGGAUCACCCAUGUAGUUUGUUGUG [JR_BME4_Sub013] (puzzle: Brourd's mod of Exclusion 4) | – | – | – | – | – | apparent KD of MS2 coat protein (MS2 coat protein; [4]): 23 nM |
| UUUUUGUGAGGAUAUCAGUAGUAAAAUAAAUAAAUUACUACUGAGAAGGCACAUGAGGAUCACCCAUGUUCCUU [Mat - Exclusion 4 - Mod of Salish - D66] (puzzle: Exclusion 4) | – | – | – | – | – | apparent KD of MS2 coat protein (MS2 coat protein; [4]): 13.7 nM |
| UUUUUUGUAGUGAGGAUAUCGUUGAGGAUGUGGAUCGAGAAGGCACAUGAGGAUCACCCAUGUUAGAUGUGGUU [JR_BMOE4_Sub083] (Eterna round: R96, puzzle: Brourd's mod of Exclusion 4) | – | – | – | – | – | apparent KD of MS2 coat protein (MS2 coat protein; input ligand: FMN 200 uM): 363 nM; apparent KD of MS2 coat protein (MS2 coat protein; [5]): 134 nM; apparent KD of MS2 coat protein (MS2 coat protein; input ligand: none): 166 nM |
| UUUUUUGUAGUGAGGAUAUCGUUGAGGAUGUGGAUCGAGAAGGCACAUGAGGAUCACCCAUGUUAGAUGUGGUU [JR_BMOE4_Sub083] (puzzle: Brourd's mod of Exclusion 4) | – | – | – | – | – | apparent KD of MS2 coat protein (MS2 coat protein; [4]): 173 nM |

— the supplement of paper PMC9170038
